Assay results as given in US20200024362A1 (SHANGHAI BENEMAE PHARMACEUTICAL, published 2020).
Changes are numbered by the printed parent chain. Like-named read-outs stand apart in the source and are kept apart here.

Key:
[1] = target: T1, human coagulation factor XI (human, UniProt P03951 19-625); assay: capture ELISA screening of hybridomas from animals immunized with human FXI
T1 construct: Bought from Enzyme Research Laboratory (HFXI 1111); also called FXI; human FXI

[2] = target: T1, human coagulation factor XI; assay: SPR (Biacore T200), antibody captured on anti-human IgG CM5 chip, FXI flowed
Experimental: (§1) The affinity of anti-FXI/FXIa antibodies to FXI/FXIa were determined using surface plasmon resonance (SPR) technology performed on the BIAcore T200 instrument. […] These antibodies were captured onto a Biacore CM5 sensor chip that was pre-immobilized with an anti-human IgG antibody.
(§2) Then different concentrations of the purified antigen FXI or FXIa (0.005-1 μg/mL) were allowed to flow through the CM5 chip for 180 s for association with the anti-FXI/FXIa antibody, followed by a time of 1800 s for dissociation. The binding data was collected and the affinity between FXI/FXIa and the test antibodies was analyzed using the Biacore Evaluation Software provided by GE Healthcare.

human factor XIa [3] = target: T2, human factor XIa (human, UniProt P03951 19-387; P03951 388-625); assay: SPR, antibody captured on sensor chip, FXIa flowed
T2 construct: also called FXIa

human factor XIa [4] = target: T2, human factor XIa; assay: SPR (Biacore T200), antibody captured on anti-human IgG CM5 chip, FXIa flowed
Experimental: as §1, §2

human factor XIa [5] = target: T2, human factor XIa; assay: cell-based or functional assay
human factor XIa [6] = target: T2, human factor XIa; assay: apparent Ki, inhibition of FXIa (5 nM) cleavage of chromogenic substrate S-2366
[7] = target: T1, human coagulation factor XI; assay: SPR, antibody captured on sensor chip, FXI flowed
Experimental: (§3) The interaction of the antibodies with FXI was determined by the SPR assay on a Biacore T200 system (Biacore, GE Healthcare). Briefly, human IgG capture antibody (Biacore, GE Healthcare) was pre-immobilized on a CM5 sensor chip (GE Healthcare), and test antibodies were captured by flowing through the chip. The final amount of the test antibodies captured was adjusted to an equal amount of 15 response units (RU) by adjusting the capture time. Then, antigen FXI was allowed to flow through the chip for 180 s for association and then for 1200 s for dissociation. […] The data were collected and the affinities between the test antibodies and FXI were analyzed using the Biacore Evaluation Software.
(§4) The test antibodies were captured on a sensor chip, and then indicated concentrations of FXI were allowed to flow through the chip.

human factor XIa [8] = target: T2, human factor XIa; assay: SPR (Biacore T200), antibody captured on sensor chip, FXIa 0.063 to 6.25 nM flowed
[9] = target: T1, human coagulation factor XI; assay: SPR (Biacore T200), antibody captured on anti-human IgG CM5 chip, FXI 0.063 to 6.25 nM flowed
Experimental: as §3, §4

[10] = target: T1, human coagulation factor XI; assay: as above; remark: listed apart in the source
Experimental: as §3, §4

human factor XIa [11] = target: T2, human factor XIa; assay: SPR (Biacore T200), antibody captured on sensor chip, FXIa 0.063 to 6.25 nM flowed; remark: listed apart in the source
human factor XIa [12] = target: T2, human factor XIa; assay: cell-based or functional assay; remark: listed apart in the source

B1: 21F12 (antibody, V domains shown)
VH: EVQLVESGGGLVQPGRSLKLSCVASGFTFNNHWMTWIRQAPGKGLEWVASITDNGGSTYYPDSVKGRFTISRDNAKSTLYLHMNSLRSEDTATYYCTRDRYDSDGYYYVRYYVVDAWGQGASVTVSS
VL: DVRMTQSPASLSASLGETVNIECLASEDIYSDLAWYQQKPGKSPQLLIYNANSLQNGVPSRFSGSGSGTQYSLKISTLQSEDVATYFCQQYSNYRRTFGGGTKLEIN
notes: Hybridoma monoclonal antibody
B1: binds [1].

B2: 42F4 (antibody, V domains shown)
VH: EVQLQESGPGLVKPSQSLSLTCSVTGYSITNHYWGWIRKFPGNKMEWIGHISNSGGTNYNPSLKSRISITRDTSKNQFFLQLKSVTTEDTATYYCTRGSYYYSASGYFDYWGQGVLVTVSS
VL: B1 VL with V2I, Y30H, S76T, T77S, S92T, R95P, R96N, G100A
notes: Hybridoma monoclonal antibody
B2: binds [1].

B3: 19F6 (antibody, V domains shown)
VH: EVQLVESGGGLVQPGRSLRLSCTASGFTFSKYVMAWVRQAPTKGLEWVASINYDGSTTYYRDSVQGRFTLSRDNAKTTLYLQMDSLRSEDTATYYCARHPFNNFGIWFAYWGQGTLVTVSS
VL: QFTLTQPKSVSGSLRSTITIPCERSSGDIGDSYVSWYQQHLGRPPINVIYADDQRPSEVSDRFSGSIDTSSNSASLTITNLQMDDAADYFCQSYDSNIDFNPVFGGGTKLTVL
notes: Hybridoma monoclonal antibody (rat, immunized with human FXI)
B3: binds [1].

B4: 7C9 (antibody, V domains shown)
VH: QIQLVQSGPELKKPGETVKISCKASGYIFTDYGMNWVKQAPGKGLKWMGWINTYTGEPTYADDFKGRFVFSLETSASTAYLQINNLKNEDTATFFCARRRMGYAVDYWGQGTSVTVSS
VL: DIQMTQSPSSLSASLGERVSLTCRASQDIDIRLNWLRQEPDGTIKRLIYATSSLDSGVPKRFSGSRSGSDYSLTISSLESEDFVDYYCLQYASSPFTFGSGTKLEIK
notes: Hybridoma monoclonal antibody
B4: binds [1].

B5: 38E4 (antibody, V domains shown)
VH: EVQLQESGPGLVKPSQSLSLTCSVSGFSITNNYWGWIRKFPRNKMEWIGHISYSGSTNYNPSLKSRISITRDSSKSQFFLQLNSLTTEDTATYYCARGSYYYSASGYFDYWGQGITVTVSS
VL: DIRMTQSPASLSASLGETVNIECLASEDIYSDLAWYQQKPGKSPQLLIYNANSVQNGVPSRFSGSGSGTQYSLKINSLQSEDVATYFCQQFNSYPNTFGAGTKLEIK
notes: Hybridoma monoclonal antibody
B5: binds [1].

B6: 45H1 (antibody, V domains shown)
VH: B2 VH with T21I, N31T, H32T, G56S, I69V, K75T, K83N, T96A, Q113H, L116M
VL: B5 VL with E22G, S53N, V54L, F91Y
notes: Hybridoma monoclonal antibody
B6: binds [1].

B7: 34F8 (antibody, V domains shown)
VH: QVQLKESGPGLVQPSQTLSLTCTVSGFSLTTYHVHWVRQPPGKGLEWMGIMWRDGDTSYNSVLKSRLSISRDISKSQVFLKMSSLQTEDTATYFCARGGTLTTPFTYWGQGTLVTVSS
VL: DVVLTQTPGSLSVTLGQQVSISCRSSQSLESRDGNTYLEWYLQKPGQSPQVLLYGVSNRLSGVPDRFLGRGSGADFTLKISRVEPEDLGVYYCFQATHGPFTFGSGTKLEMK
notes: Hybridoma monoclonal antibody
B7: binds [1].

B8: 13F4 (antibody, V domains shown)
VH: EVQLKESGPGLVQPSQTLSLTCTVSGFSLTDYSVHWVRQPPGKGLEWMGVMWSGGSTAYNPALTSRLTISRDTSKSQVFLKMNSLQTEDTAIYYCTRAPFNNWGNWLPYWGQGTLVTVSS
VL: QFTLTQPKSVSGSLRSTITIPCERSSGDIGDSYVSWYQQHLGRPPINVIYADDQRPSEVSARFSGSIDSSSNSASLTITNLQMDDEADYFCQSYDTYMDVVFGGGTKLNVL
notes: Hybridoma monoclonal antibody
B8: binds [1].

B9: 3G12 (antibody, V domains shown)
VH: QVTLKESGPGILQPSQTLSLTCSFSGFSLNTPGMGVSWIRQPSGKGLEWLAHIYWDDDKRFNPSLKSRLTISKDTSRDQVFLMITSVDTADSATYFCARKGRGPFTYWGQGTLVTVSS
VL: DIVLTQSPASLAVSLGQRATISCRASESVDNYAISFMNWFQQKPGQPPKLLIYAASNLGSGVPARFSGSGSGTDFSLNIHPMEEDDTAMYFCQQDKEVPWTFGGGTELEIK
notes: Hybridoma monoclonal antibody
B9: binds [1].

B10: 5B2 (antibody, V domains shown)
VH: B9 VH with P32S, F61Y, N62K, D78N, S92T, F96Y, A98V, T106A, Y107N, S118A
VL: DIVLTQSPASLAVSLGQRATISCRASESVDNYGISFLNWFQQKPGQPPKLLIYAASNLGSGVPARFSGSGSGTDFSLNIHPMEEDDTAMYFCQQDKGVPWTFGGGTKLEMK
notes: Hybridoma monoclonal antibody
B10: binds [1].

B11: 42A5 (antibody, V domains shown)
VH: QVQLKESGPGLVQPSQTLSLTCTVSGFSLTSYHLHWIRQPPGKGLEWMGLMWRDGDTSYNSRLKSRLSITRDTSKSQVFLKMSGLQTEDTATYYCARGMTLATPFLYWGQGTLVTVSS
VL: DVVLTQTPGSLSVTLGDPASMSCRSSQSLESSDGNTYLEWYLQKSGQSPQLLIYGVSNRFSGVPDRFAGSGSGTDFTLKISRVEPEDLGVYYCFQATRDPFTFGSGTKLEIN
notes: Hybridoma monoclonal antibody
B11: binds [1].

B12: h-19F6 (antibody, V domains shown)
VH: EVQLVESGGGLVQPGRSLRLSCTASGFTFSKYAMSWVRQAPGKGLEWVSAINYDGSTTYYADSVKGRFTLSRDNSKNTLYLQMNSLRAEDTAVYYCARHPFNNFGIWFAYWGQGTLVTVS
VL: QFQLTQPSSVSASVGDRVTITCERSSGDIGDSYVSWYQQKPGQPPKNVIYADDQRPSGVPDRFSGSIDGSGNSASLTISSLQAEDAADYFCQSYDSNIDFNPVFGGGTKLEVK
notes: Humanized rat antibody in human IgG4 form (variable regions linked to human IgG4 Fc domain, expressed in CHO cells); also called humanized 19F6
B12 gave a Kd [2] of 0.0222 nM, a Kd (human factor XIa [3]) of 0.026 nM and a Kd (human factor XIa [4]) of 0.0258 nM. The “IC50 (read off the curve)” value (human factor XIa [5]) was about 3 nM, the Ki (human factor XIa [6]) was 0.67 nM and the Kd [7] was 0.022 nM. The koff (human factor XIa [8]) was 8.36e-05 s⁻¹, the kon (human factor XIa [8]) was 3.24e+06 M⁻¹ s⁻¹ and the koff [9] was 5.88e-05 s⁻¹. The kon [9] was 2.65e+06 M⁻¹ s⁻¹.

B13: h-42A5 (antibody, V domains shown)
VH: QVTLKESGPVLVKPTETLTLTCTVSGFSLTSYHLHWIRQPPGKALEWMGLMWRDGDTSYNSRLKSRLTISRDTSKSQVVLTMTNMDPVDTATYYCARGMTLATPFLYWGQGTLVTVSS
VL: DVVLTQTPLSLSVTPGQPASISCRSSQSLESSDGNTYLEWYLQKPGQSPQLLIYGVSNRFSGVPDRFSGSGSGTDFTLKISRVEAEDLGVYYCFQATRDPFTFGQGTKLEIKR
notes: Humanized antibody in human IgG4 form; also called humanized 42A5
B13 was tested, and the koff [10] was 4.07e-05 s⁻¹, the kon [10] was 1.14e+06 M⁻¹ s⁻¹ and the Kd [2] was 0.0357 nM. It also gave a Kd (human factor XIa [3]) of 0.0081 nM, a Kd (human factor XIa [4]) of 0.00814 nM and a Ki (human factor XIa [6]) of 1.43 nM. For the same binder, the Kd [7] was 0.036 nM, the koff (human factor XIa [11]) was 1.38e-05 s⁻¹ and the kon (human factor XIa [11]) was 1.69e+06 M⁻¹ s⁻¹. For the same binder, the “IC50 (read off the curve)” value (human factor XIa [12]) was about 5 nM.

B14: h-34F8 (antibody, V domains shown)
VH: QVQLQESGPGLVKPSETLSLTCTVSGFSLTTYHVHWVRQPPGKGLEWIGIMWRDGDTYYNSSLKSRVTISRDTSKNQVSLKLSSVTAADTAVYFCARGGTLTTPFTYWGQGTLVTVSS
VL: B13 VL with S12P, Q17E, S32R, L51V, I53L, F60L, L88V, R98H, D99G
notes: Humanized antibody in human IgG4 form; also called humanized 34F8
With B14 the Kd [2] was 0.0195 nM, the Kd (human factor XIa [4]) was 0.00385 nM and the Ki (human factor XIa [6]) was 2.08 nM.
